Data on five molecules can be found in paper PMC12312386, “Multiple transactivation domains of EZH2 bind to the TAZ2 domain of p300 and stimulate the acetyltransferase function of p300” (Biochemical Journal, 2025).

To fix the notation:
B2: p300 TAZ2 domain, untagged (p300_(TAZ2)) (domain or fragment, human, UniProt Q09472 1722-1812, looked up)
chain: AWTQSPGDSRRLSIQRCIQSLVHACQCRNANCSLPSCQKMKRVVQHTKGCKRKTNGGCPICKQLIALCCYHAKHCQENKCPVPFCLNIKQK
notes: TAZ2 domain of human p300, aa 1722-1812, with a tryptophan substituted at A1723; Uniformly 15N-labeled for NMR, unlabeled in mass photometry; they are printed there only as p300_(TAZ2); also called 15N-labeled p300_(TAZ2); source: E. coli Rosetta-2 (DE3) pLysS, purified (glutathione agarose, TEV cleavage, cation exchange or heparin)

Details in all cases: both partners purified
In assay [1] the target is B2. The experiment in a line: NMR titration; 1H,15N HSQC of 50–100 μM 15N-labeled p300_(TAZ2), unlabeled peptide titrated; 298 K; 50 mM MES pH 6.5, 150 mM NaCl, 5 mM DTT.
For assay [2], the target named is T1, GST-EZH2_(TAD1) (aa 142-160 of EZH2) (human, UniProt Q15910 142-160).
T1 construct: EZH2, human, aa 142-160, made by deletion from the aa 142-231 construct in pGEX-6P-1; Dimeric in mass photometry (~70 kDa); Limits differ from the synthetic EZH2_(TAD1) peptide (142-154); source: E. coli Rosetta-2 (DE3) pLysS, purified (glutathione agarose, Ni-NTA)
T1 chain (looked up): DGTFIEELIKNYDGKVHGD
Kind of assay: mass photometry; 20 nM GST-EZH2_(TAD1) with p300_(TAZ2) (0.1 μM); room temperature; 50 mM Tris pH 7.5, 150 mM NaCl, 5 mM DTT.

A further assay concerns the target T2, GST-p300_(TAZ2) (human, UniProt Q09472 1722-1812, tryptophan substituted at A1723).
T2 construct: TAZ2 domain of human p300, aa 1722-1812, with a tryptophan substituted at A1723; pGEX-4T-1 vector with an additional TEV cleavage site; Dimeric in mass photometry (~80 kDa); also called GST-fusion of p300 TAZ2; source: E. coli Rosetta-2 (DE3) pLysS, purified (glutathione agarose, cation exchange or heparin)
T2 sequence (looked up): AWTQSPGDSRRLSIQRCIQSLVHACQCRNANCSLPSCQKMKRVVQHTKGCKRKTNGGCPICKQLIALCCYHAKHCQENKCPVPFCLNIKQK
Kind of assay: mass photometry; 20 nM GST-p300_(TAZ2) with EZH2_(TAD1-TAD2) (5 μM) or EZH2_(TAD1-TAD2-TAD3) (1 μM); room temperature; 50 mM Tris pH 7.5, 150 mM NaCl, 5 mM DTT.

Several values for one entry are separate records, joined by “and”; a condition that tells them apart may be missing. Equal values may be shown once.

B1: EZH2_(TAD1) peptide (aa 142-154 of EZH2) (peptide, UniProt Q15910 142-154, looked up)
peptide: DGTFIEELIKNYD
notes: source: synthetic peptide (SynPeptide Co. Ltd.)
Regarding B1, the binding result in assay [1] is “binds”.

On to B2, for which the “stoichiometry N” value in assay [2] was 1 p300_(TAZ2) per GST-EZH2_(TAD1) dimer and 2 p300_(TAZ2) per GST-EZH2_(TAD1) dimer.

B3: EZH2_(TAD2) peptide (aa 167-185 of EZH2) (peptide, UniProt Q15910 167-185, looked up)
peptide: NDEIFVELVNALGQYNDDD
notes: as for B1
Take B3: the binding result in assay [1] was “binds”.

B4: EZH2_(TAD3) peptide (aa 220-231 of EZH2) (peptide, UniProt Q15910 220-231, looked up)
peptide: SDKIFEAISSMF
notes: as for B1
On to B4, for which the binding result in assay [1] is reported as “binds”.

B5: EZH2_(TAD1-TAD2-TAD3) (aa 142-231 of EZH2) with C-terminal 6xHis tag (domain or fragment)
chain: not shown
notes: EZH2, human, aa 142-231, holds TAD1, TAD2 and TAD3; pGEX-6P-1 vector; also called triple EZH2_(TAD1-TAD2-TAD3); source: E. coli Rosetta-2 (DE3) pLysS, purified (glutathione agarose, PreScission cleavage, Ni-NTA)
For the molecule B5, the “stoichiometry N” value with GST-p300_(TAZ2) was 6 GST-p300_(TAZ2) per EZH2_(TAD1-TAD2-TAD3).
